Measured values as given in US20250101074A1 (Affibody, published 2025).

Experiments:
Assay in all cases: SPR (Biacore), PEP07843 immobilized, analyte protein injected
[1] = molecular target: T1, human IL-17F (human, UniProt Q96PD4 31-163)
T1 construct: R&D Systems cat. no; 1335-IL/CF; also called hIL-17F
T1 sequence: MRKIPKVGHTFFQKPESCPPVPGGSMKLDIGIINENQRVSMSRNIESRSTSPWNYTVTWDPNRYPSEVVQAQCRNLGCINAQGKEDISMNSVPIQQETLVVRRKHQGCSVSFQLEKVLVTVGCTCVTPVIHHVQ
Experimental: (§1) In the binding experiment, HBS-EP was used as running buffer and the flow rate was 30 μl/min. […] The analytes, i.e. the panels of 24 or 12 different proteins, were each diluted in HBS-EP or HBS-EP supplemented with 500 mM NaCl to final concentrations of from 0.4 to 250 nM and injected for 5 min. […] The results were analyzed using the BiaEvaluation software.
(§2) The Z-ABD-Z polypeptides were injected over surfaces containing HSA followed by injection of the analyte proteins.

[2] = molecular target: hGM-CSF (human, UniProt P04141 18-144)
Sequence of hGM-CSF (P04141 18-144 limits assumed): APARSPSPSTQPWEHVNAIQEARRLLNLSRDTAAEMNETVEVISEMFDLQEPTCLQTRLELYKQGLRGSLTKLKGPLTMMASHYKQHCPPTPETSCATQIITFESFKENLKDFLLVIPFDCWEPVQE
Experimental: as §1, §2

[3] = molecular target: T2, hIL-17B (human, UniProt Q9UHF5 21-180)
T2 sequence (looked up): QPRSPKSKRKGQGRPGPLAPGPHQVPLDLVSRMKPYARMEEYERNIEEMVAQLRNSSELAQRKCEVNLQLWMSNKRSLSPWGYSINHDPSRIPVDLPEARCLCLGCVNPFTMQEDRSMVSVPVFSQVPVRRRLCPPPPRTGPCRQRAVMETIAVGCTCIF
Experimental: as §1, §2

[4] = molecular target: T3, AMBP/Alpha1 microglobulin (UniProt P02760 20-203, limits assumed)
T3 sequence (looked up): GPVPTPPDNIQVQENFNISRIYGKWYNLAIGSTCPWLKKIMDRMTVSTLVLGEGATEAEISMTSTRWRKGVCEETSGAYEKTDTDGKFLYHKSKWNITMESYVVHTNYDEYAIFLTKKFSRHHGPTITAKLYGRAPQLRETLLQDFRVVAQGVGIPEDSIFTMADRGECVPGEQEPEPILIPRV
Experimental: as §1, §2

[5] = molecular target: T4, hIL-17E (human, UniProt Q9H293 33-177)
T4 sequence (looked up): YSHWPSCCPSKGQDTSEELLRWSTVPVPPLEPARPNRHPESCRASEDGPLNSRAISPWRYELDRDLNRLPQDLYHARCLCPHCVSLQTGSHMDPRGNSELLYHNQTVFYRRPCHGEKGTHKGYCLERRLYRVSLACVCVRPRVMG
Experimental: as §1, §2

[6] = molecular target: T5, hIL23 (human, UniProt Q9NPF7 20-189; P29460 23-328)
T5 construct: the two subunits are general knowledge
T5 sequence (looked up) 1: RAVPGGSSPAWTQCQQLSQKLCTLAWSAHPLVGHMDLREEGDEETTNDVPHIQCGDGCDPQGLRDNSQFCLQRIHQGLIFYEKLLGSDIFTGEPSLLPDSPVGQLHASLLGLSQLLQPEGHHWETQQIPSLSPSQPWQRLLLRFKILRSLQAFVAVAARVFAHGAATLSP
T5 sequence (looked up) 2: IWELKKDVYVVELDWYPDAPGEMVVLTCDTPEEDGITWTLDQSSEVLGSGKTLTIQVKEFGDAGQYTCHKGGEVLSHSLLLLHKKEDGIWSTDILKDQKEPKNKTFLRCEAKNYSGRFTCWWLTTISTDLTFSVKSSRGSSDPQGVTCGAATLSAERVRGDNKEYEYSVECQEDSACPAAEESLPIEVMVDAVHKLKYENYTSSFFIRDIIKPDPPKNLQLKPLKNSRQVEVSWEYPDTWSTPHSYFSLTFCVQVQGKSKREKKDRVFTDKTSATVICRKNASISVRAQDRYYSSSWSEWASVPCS
Experimental: as §1, §2

Measured: binding result

GSSLAEAKEAANAELDSYGVSDFYKRLIDKAKTVEGVEALKDAILAALP (designed binder) [ABD variant PEP07843]
no binding (tested: 50, 250 nM): all assays above
